Laboratory results as given in paper PMC13104032, “Prion Protein-Derived Cell-Penetrating Peptide Inhibits Type II Diabetes-Associated Islet Amyloid Polypeptide Aggregation and Cytotoxicity” (Biochemistry, 2026).
No end group written: not given here.

Biological target: T1, human islet amyloid polypeptide (IAPP), C-terminally amidated (human, C-terminal amide)
T1 construct: islet amyloid polypeptide (amylin), human, the 37-residue peptide hormone, residues 1-37; numbers count on: the mature protein; also called amylin
T1 chain: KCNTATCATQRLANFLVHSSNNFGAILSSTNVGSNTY
Test: native MS
Conditions: both partners purified

MLRTKDLIWTLFFLGTAVSKKRPKP-NH2 (also called NPr; CPP) [NCAM1-PrP (NCAM1(1-19)-PrP(23-28)) cell-penetrating peptide construct]
stoichiometry N: 1
